Columns and labels:
[1] = biological target: squirrel monkey prokineticin receptor 2 (PKR2) (squirrel monkey); experiment: cell-based or functional assay
[2] = biological target: rhesus monkey prokineticin receptor 1 (PKR1) (rhesus monkey); experiment: cell-based or functional assay

Substance | calcium mobilization (aequorin luminescence) EC50 [1] | calcium mobilization (aequorin luminescence) EC50 [2]
recombinant human PK1 (from UniProt P58294 20-105) (ligand) | 10 nM | –
recombinant human PK2 (from UniProt Q9HC23 28-129) (ligand) | – | 10 nM

From US20060019338A1
